Laboratory results reported in the supplement of paper PMC10724198.
± gives the standard deviation of the averaged measurements.

System: Saccharomyces cerevisiae
Test: protein stability index of tFT-peptide fusion (C-terminal peptide) (PSI (0-1 scale)); higher = more stable (slower turnover)
Conditions: genetic background: wild type; temperature: 30 C
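Further: PSI is a weighted mean of sequencing reads over stability bins, variants kept only with over 10 reads, mCherry proximal and sfGFP distal, peptide attached via GGGS linker.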

Sequence	protein stability index
VWGGGRGGGGKG	0.619 ± 0.031
VWGGNGRAASQL	0.742 ± 0.019
VWGLGWEFWWGV	0.7157 ± 0.0021
VWIGMSLSSLVM	0.512 ± 0.011
VWLSRLVFLSPL	0.602 ± 0.0046
VWRGCRVGGQGM	0.687 ± 0.042
VWRGPVVAAGWG	0.659 ± 0.018
VWRSERCRRGGV	0.699 ± 0.15
VWSGGDGGGAVV	0.733 ± 0.051
VWSILSCRTRLL	0.503 ± 0.02
VWSPGGGAFVGG	0.815 ± 0.047
VWTPWSTKDCLG	0.721 ± 0.054
VYDASLPIRFFL	0.697 ± 0.013
VYFLDPSSPPWF	0.752 ± 0.011
VYRGSQKQRAQG	0.685 ± 0.024
VYRIAEENRRWV	0.738 ± 0.12
VYRMYTLKRVKR	0.686 ± 0.062
WAGQWCRGRAGG	0.728 ± 0.056
WAIYPDVESVIP	0.773 ± 0.0081
WALLAAGGGGRG	0.651 ± 0.074
WARLHLSGRYSL	0.747 ± 0.02
WAVGRGLVLSST	0.684 ± 0.042
WCECGVWGGLWG	0.719 ± 0.021
WCGKVVVGSRQG	0.68 ± 0.032
WCLVTRGGDRDL	0.6727 ± 0.0047

Sequence	protein stability index
WCRHREYFYGSN	0.657 ± 0.032
WCSVGVSGFVIR	0.725 ± 0.0075
WDGWPTRSGGTG	0.738 ± 0.023
WDSPVMCVTIID	0.628 ± 0.0094
WDYQGIIFVAGG	0.687 ± 0.0075
WEQQTSLPLLSL	0.712 ± 0.021
WFAGRDRHRAND	0.745 ± 0.1
WFCDNHRSFGWG	0.747 ± 0.07
WFFPPLPPPLPR	0.686 ± 0.04
WFLCCFGGVSLV	0.619 ± 0.0064
WFLFIPLACLRP	0.592 ± 0.0079
WFLVQQCGQMDR	0.711 ± 0.022
WFNRRISPISGI	0.676 ± 0.059
WFSRVSSASRRS	0.7073 ± 0.00084
WGACSALRRLGY	0.684 ± 0.044
WGAGGGGWGGGV	0.685 ± 0.024
WGEGCGSSEEGE	0.695 ± 0.087
WGFVCWGCGGCS	0.746 ± 0.028
WGGEVGQLLELW	0.714 ± 0.048
WGGGCGRRIGCR	0.7193 ± 0.007
WGGGGGGSGACL	0.6974 ± 0.0069
WGGGPGLRVVGG	0.731 ± 0.026
WGGGRGTAVVGV	0.657 ± 0.028
WGGRSVGGVVWR	0.714 ± 0.036
WGLCIGTGWALG	0.708 ± 0.0092

Sequence	protein stability index
WGLGLYEENTGC	0.7468 ± 0.003
WGRCGSVGRGGA	0.749 ± 0.024
WGRGHPIYVCRV	0.689 ± 0.013
WGRRCRFIFRGM	0.654 ± 0.074
WGSSGCLFGTVG	0.769 ± 0.12
WGSSGWVGEGGG	0.657 ± 0.044
WGTGGRRGVGHV	0.709 ± 0.066
WGVGWSGRVGGS	0.647 ± 0.045
WGWGVASRCCEG	0.72 ± 0.042
WGYWGGVMGLEE	0.738 ± 0.043
WHDLDRGSFRAV	0.669 ± 0.023
WITAYFPLHSSE	0.714 ± 0.036
WLCGSIGHAMLG	0.739 ± 0.062
WLFDFECRCILG	0.65 ± 0.11
WLFDRLPFNAEN	0.715 ± 0.046
WLFRGELCGGAN	0.588 ± 0.014
WLGAYVRAWSVA	0.533 ± 0.0011
WLGGGGGMQGVR	0.669 ± 0.057
WLRTGNVLQELL	0.699 ± 0.03
WLVCGRSFVFTL	0.549 ± 0.058
WLVFRISLLRFD	0.541 ± 0.026
WLVRHLGFVPWI	0.7 ± 0.028
WLWLGFNRVFFY	0.511 ± 0.033
WMAFRRIPTWSG	0.679 ± 0.073
WMSLLEFGSLCG	0.748 ± 0.15

Sequence	protein stability index
WPGYLTNVLPVI	0.65 ± 0.029
WPSTLHRGLSLP	0.702 ± 0.074
WRCAGVGGVGGG	0.708 ± 0.012
WRGIFPSRFCLS	0.62 ± 0.039
WRGRWVWGVGEV	0.628 ± 0.069
WRLAGRRGIQCD	0.7 ± 0.017
WRLCWWVVESGG	0.639 ± 0.02
WRPPPPYSPFSL	0.74 ± 0.066
WRRLVGGVAWLW	0.726 ± 0.08
WRVVTPPSVDHR	0.677 ± 0.015
WSAPHPVCSPPS	0.697 ± 0.0093
WSGERCFLGFYR	0.771 ± 0.087
WSPVPVPPPLPT	0.722 ± 0.083
WSSCISCLLRGV	0.688 ± 0.066
WSSSRPASGSSA	0.708 ± 0.016
WSSVLGYFSRKE	0.702 ± 0.024
WTAITDRRSRPD	0.616 ± 0.063
WTDHISEHLHTV	0.742 ± 0.039
WTFEYRNHKMKK	0.7149 ± 0.0071
WVAFTRGGCGHC	0.66 ± 0.017
WVCARQVGIGWG	0.6657 ± 0.0019
WVCCVGAGFLVV	0.594 ± 0.03
WVCRGSSLKSSI	0.677 ± 0.058
WVFRHSTMNNEN	0.672 ± 0.094
WVGEVSMGVRAG	0.666 ± 0.014

Sequence	protein stability index
WVGLGMSLRRAA	0.564 ± 0.062
WVSMDFTGLVNG	0.628 ± 0.015
WVTKGLYIMSTK	0.663 ± 0.11
WVVGCVRGVWGA	0.712 ± 0.051
WWEGSFRGGAVR	0.592 ± 0.094
WYSSSRDLSVSG	0.731 ± 0.0076
YASKNPSVVIFG	0.68 ± 0.018
YATLGPDRALVR	0.655 ± 0.0095
YAVGWLLGGLWD	0.765 ± 0.053
YCGCLGYATGRV	0.671 ± 0.017
YCGLQSWLGVGG	0.677 ± 0.0076
YCMRPLCLEMFR	0.682 ± 0.016
YCPLSRTQSSAR	0.859 ± 0.18
YCPVFSLPPFFR	0.664 ± 0.086
YCRSFSGPFFDI	0.745 ± 0.094
YCTMHLQLLQHS	0.578 ± 0.012
YDLLLYGGATSP	0.757 ± 0.084
YDRFVNGKSPGM	0.701 ± 0.06
YDSGNWPGFRCQ	0.73 ± 0.055
YDVLGLFPICKW	0.729 ± 0.06
YEHPRLRNGSIM	0.8 ± 0.24
YFCCFIPFFFDC	0.663 ± 0.069
YFETNINKYLRM	0.7107 ± 0.00072
YFFECFKECREQ	0.749 ± 0.015
YGGCGFEEEGVR	0.73 ± 0.02

Sequence	protein stability index
YGGSLLNVFGLG	0.645 ± 0.0078
YGIGVRMPRSYW	0.709 ± 0.035
YGPRNRNPPNAG	0.688 ± 0.099
YHPPLDHHQCTE	0.648 ± 0.063
YHPPLTIQSLGH	0.694 ± 0.029
YIGLPVSALTIF	0.574 ± 0.1
YILSSFPSCLVL	0.64 ± 0.034
YINRKKKKINKT	0.675 ± 0.066
YKGGDEVKTKKK	0.656 ± 0.035
YKRRYTKNQIRK	0.666 ± 0.054
YKSKQKAQQKAK	0.64 ± 0.13
YLFSLSSSLFIL	0.56 ± 0.0085
YLPLPPLTPPPR	0.776 ± 0.036
YLPSTAHSAHPP	0.737 ± 0.045
YLQPSGSRPGAK	0.715 ± 0.014
YLRSMIPKELAV	0.605 ± 0.023
YMIPVPFSNLCL	0.66 ± 0.011
YMSHPHGPLCLS	0.75 ± 0.21
YPAVNLVPPPDV	0.675 ± 0.013
YPGPFTGCSKIQ	0.676 ± 0.069
YPGVSRCGTRWV	0.643 ± 0.046
